Among the data in the RNAGym collection of RNA variant scans (doi:10.7554/elife.80360) are self-cleavage values, retold here.

B1: CPEB3 Ribozyme (parent)
chain: GGGGGCCACAGCAGAAGCGUUCACGUCGCGGCCCCUGUCAGAUUCUGGUGAAUCUGCGAAUUCUGCUGU
B2: Hammerhead Ribozyme (parent)
chain: ACCGGAUGUGCUUUCCGGUCUGAUGAGUCCGUGAGGACGAAACAG

Variants of B1 are the subject of one data set. As to the kind of experiment: self-cleavage, relative activity (ratio to wild type); higher = more cleavage; co-transcriptional.
For GGGGGCCACAGCAGAAGCGUUCACGUCGCGGCCCCUGUCAGAUUCUGGUGAAUCUGCGAAUUCUGCGGA, the self-cleavage was 1.1.
For GGGGGCCACAGCAGAAGCGUUCACGUCGCGGCCCCUGUCAGAUUCUGGUGAAUCUGCGAAUUCUGCGGC, the self-cleavage came out at 1.1.
On the same count and under the same terms, to GGGGGCCACAGCAGAAGCGUUCACGUCGCGGCCCCUGUCAGAUUCUGGUGAAUCUGCGAAUUCUGCUAG belongs 1.06; to GGGGGCCACAGCAGAAGCGUUCACGUCGCGGCCCCUGUCAGAUUCUGGUGAAUCUGCGAAUUCUGUCGU, 0.956.
In the case of GGGGGCCACAGCAGAAGCGUUCACGUCGCGGCCCCUGUCAGAUUCUGGUGAAUCUGCGAAUUCUGUGGU, the self-cleavage stood at 1.
Regarding GGGGGCCACAGCAGAAGCGUUCACGUCGCGGCCCCUGUCAGAUUCUGGUGAAUCUGCGAAUUCUGUUCU, the self-cleavage worked out at 0.991.
Consider GGGGGCCACAGCAGAAGCGUUCACGUCGCGGCCCCUGUCAGAUUCUGGUGAAUCUGCGAAUUCUGCUCA, for which the self-cleavage came to 1.06.
On to GGGGGCCACAGCAGAAGCGUUCACGUCGCGGCCCCUGUCAGAUUCUGGUGAAUCUGCGAAUUCUGCUCG, for which the self-cleavage was 1.11.
Same read-out and setting: to GGGGGCCACAGCAGAAGCGUUCACGUCGCGGCCCCUGUCAGAUUCUGGUGAAUCUGCGAAUUCUGGGGU belongs 0.909; to GGGGGCCACAGCAGAAGCGUUCACGUCGCGGCCCCUGUCAGAUUCUGGUGAAUCUGCGAAUUCUGGAGU, 0.937; to GGGGGCCACAGCAGAAGCGUUCACGUCGCGGCCCCUGUCAGAUUCUGGUGAAUCUGCGAAUUCUGAUGA, 0.969.
For the variant GGGGGCCACAGCAGAAGCGUUCACGUCGCGGCCCCUGUCAGAUUCUGGUGAAUCUGCGAAUUCUGCACU, the self-cleavage was 0.955.
As to GGGGGCCACAGCAGAAGCGUUCACGUCGCGGCCCCUGUCAGAUUCUGGUGAAUCUGCGAAUUCUGCAUU, the self-cleavage turned out to be 1.01.
In the case of GGGGGCCACAGCAGAAGCGUUCACGUCGCGGCCCCUGUCAGAUUCUGGUGAAUCUGCGAAUUCUGCAAU, the self-cleavage is 1.07.
As to GGGGGCCACAGCAGAAGCGUUCACGUCGCGGCCCCUGUCAGAUUCUGGUGAAUCUGCGAAUUCUGCCGG, the self-cleavage turned out to be 1.11.
For the variant GGGGGCCACAGCAGAAGCGUUCACGUCGCGGCCCCUGUCAGAUUCUGGUGAAUCUGCGAAUUCUGCCGA, the self-cleavage came out at 1.07.
As for GGGGGCCACAGCAGAAGCGUUCACGUCGCGGCCCCUGUCAGAUUCUGGUGAAUCUGCGAAUUCUGCGUU, the self-cleavage came out at 1.1.
Regarding GGGGGCCACAGCAGAAGCGUUCACGUCGCGGCCCCUGUCAGAUUCUGGUGAAUCUGCGAAUUCUGCGCU, the self-cleavage amounted to 1.07.
Regarding GGGGGCCACAGCAGAAGCGUUCACGUCGCGGCCCCUGUCAGAUUCUGGUGAAUCUGCGAAUUCUGCUUC, the self-cleavage came out at 1.1.
Take GGGGGCCACAGCAGAAGCGUUCACGUCGCGGCCCCUGUCAGAUUCUGGUGAAUCUGCGAAUUCUGCUUG: the self-cleavage turned out to be 1.02.
Same read-out and setting: with GGGGGCCACAGCAGAAGCGUUCACGUCGCGGCCCCUGUCAGAUUCUGGUGAAUCUGCGAAUUCUGCUUA the figure was 1.01; with GGGGGCCACAGCAGAAGCGUUCACGUCGCGGCCCCUGUCAGAUUCUGGUGAAUCUGCGAAUUCUGAAGU, 0.977; with GGGGGCCACAGCAGAAGCGUUCACGUCGCGGCCCCUGUCAGAUUCUGGUGAAUCUGCGAAUUCUGAGGU, 0.891.
Consider GGGGGCCACAGCAGAAGCGUUCACGUCGCGGCCCCUGUCAGAUUCUGGUGAAUCUGCGAAUUCUGCCUU, for which the self-cleavage came out at 1.06.
For the variant GGGGGCCACAGCAGAAGCGUUCACGUCGCGGCCCCUGUCAGAUUCUGGUGAAUCUGCGAAUUCUGCCAU, the self-cleavage came out at 0.983.
Same read-out and setting: to GGGGGCCACAGCAGAAGCGUUCACGUCGCGGCCCCUGUCAGAUUCUGGUGAAUCUGCGAAUUCUGUUGU belongs 0.99; to GGGGGCCACAGCAGAAGCGUUCACGUCGCGGCCCCUGUCAGAUUCUGGUGAAUCUGCGAAUUCUGAUGU, 0.911.
With GGGGGCCACAGCAGAAGCGUUCACGUCGCGGCCCCUGUCAGAUUCUGGUGAAUCUGCGAAUUCUGGUGU, the self-cleavage is 0.937.
For the variant GGGGGCCACAGCAGAAGCGUUCACGUCGCGGCCCCUGUCAGAUUCUGGUGAAUCUGCGAAUUCUGCUGA, the self-cleavage came out at 1.02.
On the same count and under the same terms, to GGGGGCCACAGCAGAAGCGUUCACGUCGCGGCCCCUGUCAGAUUCUGGUGAAUCUGCGAAUUCUGCUGC belongs 1.06.
On to GGGGGCCACAGCAGAAGCGUUCACGUCGCGGCCCCUGUCAGAUUCUGGUGAAUCUGCGAAUUCUGCUGG, for which the self-cleavage was found to be 1.06.
As to GGGGGCCACAGCAGAAGCGUUCACGUCGCGGCCCCUGUCAGAUUCUGGUGAAUCUGCGAAUUCUGUUGA, the self-cleavage came out at 1.03.
GGGGGCCACAGCAGAAGCGUUCACGUCGCGGCCCCUGUCAGAUUCUGGUGAAUCUGCGAAUUCUGUUGC: the self-cleavage came to 1.06.
For the variant GGGGGCCACAGCAGAAGCGUUCACGUCGCGGCCCCUGUCAGAUUCUGGUGAAUCUGCGAAUUCUGGUGG, the self-cleavage was 0.923.
GGGGGCCACAGCAGAAGCGUUCACGUCGCGGCCCCUGUCAGAUUCUGGUGAAUCUGCGAAUUCUGGUGC: the self-cleavage turned out to be 1.01.
On the same count and under the same terms, with GGGGGCCACAGCAGAAGCGUUCACGUCGCGGCCCCUGUCAGAUUCUGGUGAAUCUGCGAAUUCUGGUGA the figure was 1.02.
With GGGGGCCACAGCAGAAGCGUUCACGUCGCGGCCCCUGUCAGAUUCUGGUGAAUCUGCGAAUUCUGCAGG, the self-cleavage was 1.04.
Same read-out and setting: to GGGGGCCACAGCAGAAGCGUUCACGUCGCGGCCCCUGUCAGAUUCUGGUGAAUCUGCGAAUUCUGCAGC belongs 1.07.
For the variant GGGGGCCACAGCAGAAGCGUUCACGUCGCGGCCCCUGUCAGAUUCUGGUGAAUCUGCGAAUUCUGCAGA, the self-cleavage is 0.996.
On the same count and under the same terms, to GGGGGCCACAGCAGAAGCGUUCACGUCGCGGCCCCUGUCAGAUUCUGGUGAAUCUGCGAAUUCUGAUUU belongs 0.799.
Consider GGGGGCCACAGCAGAAGCGUUCACGUCGCGGCCCCUGUCAGAUUCUGGUGAAUCUGCGAAUUCUGAUCU, for which the self-cleavage came to 0.84.
The same measure, in the same setting: with GGGGGCCACAGCAGAAGCGUUCACGUCGCGGCCCCUGUCAGAUUCUGGUGAAUCUGCGAAUUCUGGUAU the figure was 0.96.
Same read-out and setting: with GGGGGCCACAGCAGAAGCGUUCACGUCGCGGCCCCUGUCAGAUUCUGGUGAAUCUGCGAAUUCUUCUGC the figure was 0.97.

The variants in the next data set derive from B2. Described as above.
As for ACCGGAUGUGCAUUCCGGUCUGAUGAGUCCCUGAGGACGAAACAG, the self-cleavage was 0.801.
Still for that read-out and setting: to ACCGGAUAUGCUUUCCGGUCUGAUGAGUCCGUGAGAACGAAACAG belongs 0.424.
Take ACCGGAUGUGCUUUCCGGUCUGAUGACUCCGUGAGGACGAGACAG: the self-cleavage was determined as 0.457.
Turning to ACCGGAUGUGCUUUCCGGUCUGAGGAGUCCGUGAGGACCAAACAG, the self-cleavage came to 0.266.
